Source: article PMC6154215

Columns and labels:
Assay in all cases: fluorescence polarisation
[1] = molecular target: bivalent ExoS L423A peptide, fluorescently labeled (Pseudomonas aeruginosa) (UniProt Q51451)
[2] = molecular target: bivalent wild-type ExoS peptide, fluorescently labeled (Pseudomonas aeruginosa)
[3] = molecular target: monovalent ExoS L423A peptide, fluorescently labeled (Pseudomonas aeruginosa) (UniProt Q51451)

“tobacco 14-3-3 homodimer T14-3-3cΔC (domain or fragment)” was tested, and the Kd [1] was 5.9 µM, the Kd [2] was 45.5 nM and the Kd [3] was 127 µM.
